This note sets out measurements from patent US20180334496A1 (KODIAK SCIENCES, published 2018).

The target of experiment [1] is T1, human Complement Factor D (CFD), purified from human serum (human, UniProt P00746 26-253).
T1 construct: serum purified (CompTech A136); also called serum purified CFD; hCFD-Comptech
The experiment is described as follows: SPR MX96, mAbs amine-coupled, CFD injected.

In experiment [2] the target is T2, recombinant cynomolgus CFD, His-tagged (cynomolgus).
T2 construct: also called rcyCFD-His; recombinant Cyno-CFD
The experiment can be described thus: SPR MX96.

T1 sequence (P00746 26-253): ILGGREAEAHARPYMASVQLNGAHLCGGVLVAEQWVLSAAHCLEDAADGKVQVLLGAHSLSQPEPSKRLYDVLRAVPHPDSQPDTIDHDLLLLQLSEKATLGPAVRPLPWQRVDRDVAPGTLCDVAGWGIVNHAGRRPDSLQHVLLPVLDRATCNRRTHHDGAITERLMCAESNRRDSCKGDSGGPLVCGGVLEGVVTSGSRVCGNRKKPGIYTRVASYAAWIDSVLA

B1: KCD022 (antibody, V domains shown)
VH: DVQLQESGPDLVKPSQSLSLTCTVTGYSITSGYSWHWIRQFPGNTLEWMGYIHYSGSTNYNPSLESRISFTRDTSKNQFFLQLNSVTTEDTATYYCALHFYGYNLGWYFDVWGAGTTVTVSS
VL: DIVMTQSHKFMSTSIGDRVIITCKASQDVGTTVAWYQQRPGQSPKLLIYWASTRHTAVPDRFTGSGSGTDFTLTISNVQSEDLADYFCQQYTSYPLTFGAGTQLELK
A word on the Kd: it is the constant that tells how readily two partners part at equilibrium. As to B1, in experiment [1], the equilibrium dissociation constant (Kd) worked out at 56.8 nM.

B2: KCD216 (antibody, V domains shown)
VH: QVHLQQSGPELVKPGASVKISCKASGYTFIDYYINWVKQRPGQGLEWIGWIFPGSDSTYYNEKFKGKATLTVDKSSSTAYMLLSSLTSEDSAVYFCARYGYYGSSFYAMDYWGQGTSVTVSS
VL: DIQMTQSPASLSVSVGETVTITCRASENIYSNLAWYQQKQGKSPQLLVYAATNLADGVPSRFSGSGSGTQYSLKINSLQSEDFGSYYCQHFWGTPPTFGGGSKLEIK
On to B2, for which the equilibrium dissociation constant (Kd) in experiment [2] was 13 nM.

B3: KCD033 (antibody, V domains shown)
VH: EVQLQQSGPELVKPGASMKISCTASGYSFTGYTMTWVKQSHGKNLEWIGLINPYNGGTNYNQKFKGKATLTVDKSSSIAYMELLSLTSEDSAVYYCARRHYGSNWDYWGQGTTLTVSS
VL: DIKLTQSPSSIYTSLGERVTITCKASQDINTYLSWFQQRPGKSPKTLIYRADRLVDGVPSRVRGSGSGQDYSLTISSLEYEDMGIYYCLQYDEFPYTFGGGTKLEIK
Regarding B3, in experiment [1], the Kd stood at 10.9 nM.

B4: KCD036 (antibody, V domains shown)
VH: EVQLQQSGPELVKPGASMKISCKASGYSFTGYTMTWVKQSHGKNLEWIGLINPYNGGTNYNQKFKGKATFTVDKSSSTAYMELLSLTSEDSAVYYCARRHYGSSWDYWGQGTTLTVSS
VL: DIKLTQSPSSMYASLGERVTITCKASQDINTYLSWFQQKPGKSPKTLIYRANRLVDGVPSRFSGSGSGQDYSLTISSLEYEEMGIYYCLQYDEFPYTFGGGTKLEIK
With B4, the affinity in experiment [1], expressed as Kd, was 25.5 nM.

B5: KCD001 (antibody, V domains shown)
VH: EVQLQQSGPELVKPGASVKISCKASDNSFTGYYMHWVKQSHGNILDWIGYIDPYNGVSSYNQKFKGKATLTVDKSSSTAYMEIRSLTSEDSAVYYCASYYGSSPYWYFDVWGTGTTVTVSS
VL: QIVLSQSPAILSASPGEKVTMTCRASSSVSYMHWYQQKPGSSPKPWIYATSNLASGVPARFSGSGSGTSHFLTISRLEAEDAATYFCQQWSSNPYTFGGGTKLEIK
On to B5, for which the affinity in experiment [1], expressed as Kd, was 0.225 nM.

B6: KCD111 (antibody, V domains shown)
VH: EVQLQQSGPELVKPGASVKISCKASGYSFTDYYMHWVKQSHGNILDWIGYIDPYNGVSSYNQKFKGKATLSVDQSSSTAYMELRSLTSEDSAVYYCSSYYGSSPYWYFDVWGTGTRVTVSS
VL: QIVLSQSPAILSASPGEKVTMTCRASSSVSYMHWYQQKPGSSPKPWIYATSNLASGVPTRFSGSGSGTSYSLTISKLEAEDAATYYCQQWSSNPYTFGGGTKLEIK
Turning to B6, the Kd in experiment [2] worked out at 7.2 nM.

B7: KCD011 (antibody, V domains shown)
VH: EVKLVESGGGLVQPGGSLKLSCAASGFTFSSNTMSWVRQTPEKRLEWVAYITNGGGSTYYPDTVKGRFTISRDNARNTLYLQMSSLKSEDTAMYYCARHDYYTMDYWGQGTSVTVSS
VL: DIQMTQSPSSLSASLGGKVTITCKASQDINKYIAWYQHKPGKGPRLLIHYTSTLQPGIPSRFSGSGSGRDYSFSISNLEPEDIATYYCLQYDNLLYTFGGGTKLEIK
B7 came in with a Kd in experiment [1] of 77.5 nM.

B8: KCD057 (antibody, V domains shown)
VH: EVKLVESGGGLVQPGGSLKLSCAASGFTFSNYIMSWVRQTPEKRLEWVAYITNGGGATYYPDTVKGQFTISRDNAKNTLYLQMSSLKSEDTAIYYCARHDFYALDFWGQGTSVTVSS
VL: DIQMTQSPSSLSASLGGKVTITCKASQDINKYIAWYQHKPGKGPRLLIHYTSTLQPGIPSRFSGSGSGRDYSFSISNLEPEDIATYYCLKYDNLLYTFGGGTKLEIK
Take B8: the Kd in experiment [1] worked out at 2.71 nM.

B9: KCD056 (antibody, V domains shown)
VH: EVKLVESGGGLVQPGGSLKVSCAASGFTFSTYTMSWVRQTPEKRLEWVAYITNGGGSTYYPDTEKGRFTISRDNAKNTLYLQMSSLKSEDTAMYYCVRHDYYAMDYWGQGTSVTVSS
VL: DIQMTQSPSSLSASLGGKVTITCKASQDINKYIAWYQHKPGKGPRLLIHYTSTLQPGIPSRFSGSGSGRDYSFSISNLEPEDIATYYCLQYDNLLYTFGGGTTLEIK
On to B9, for which, in experiment [1], the Kd worked out at 60.2 nM.

B10: KCD015 (antibody, V domains shown)
VH: EVQLQQSGAELVKPGASVKLSCTASGFNIKDTYMHWVKQRPEQGLEWIGRIDPANGYTEYDPKFQGKATITADTSSNTAYLQLSSLTSEDSAAYYCTSAMEFWGQGTSVTVSS
VL: QIVLTQSPAILSASPGEKVTMTCSASSSVSYIYWYQQKPRSSPRLLIYDTSNLASGVPVRFSGSGSGTSYSLTISRMEAEDAATYYCQQWSSYPFTFGGGTKLEVK
The molecule B10 returned a Kd in experiment [1] of 6.23 nM.

B11: KCD048 (antibody, V domains shown)
VH: EVQLQQSGADLVKPGASVKLSCTASGFNIKATYMHWVRQRPEKGLEWIGRIDPANGHTIYDPQFQGKATITSDTSSNTAYLQLNSLTSEDTAVYYCAEAMDYWGQGTSVTVSS
VL: QIVLTQSPAIMSASPGEKVTLTCSATSSVSYMYWYQQKPGSSPRLLIYDTSNLASGVPVRFSGSGSGTSYSLTISRMEAEDDATYYCQQWSNYPFTFGGGTKLEIK
Take B11: the affinity in experiment [1], expressed as Kd, was 1.87 nM.

B12: KCD006 (antibody, V domains shown)
VH: EVQLQQSGAELVKPGASVKLSCTASGFKIKDTYMHWVKERPEQGLEWIGRIDPANGNTKYDPKFQGKATITADTSSNTAYLQLSSLTSEDTAVYYCANAMDYWGQGTSVTVSS
VL: QIILTQSPAIMSASPGEKVTMTCSARSSVSNMYWYQQKPGSSPRLLIYDTSNLASGVPVRFSGSGSGTSYSLTISRMEAEDAATYYCQQWSSYPWTFGGGTKLEIK
Regarding B12, the Kd in experiment [2] was found to be 150 nM.

B13: KCD042 (antibody, V domains shown)
VH: EVQLQQSGAELVKPGASVRLSCTASGFNIKHTYIHWVSQRPEQGLEWIGKIDPANGNTKYDPKFQGKATITADTSSNTAYLQLSSLTSEDTAVYYCVNAMEYWGQGTSVTVSS
VL: QSVLTQSPAIMSASPGEKVTMTCSANSSVSDMYWFQQRPGSSPRLLIYDTSNLASGVPVRFSGSGSGTSYSLTISRMEAEDAATYYCQQWSTYPWTFGGGTKLEIK
Molecule B13 displayed a Kd in experiment [1] of 1.43 nM.

B14: KCD044 (antibody, V domains shown)
VH: EVQLQQSGAELVKPGASVRLSCTASGFNIKHTYMHWVSQRPERGLEWIGKIDPANGNTKYDPKFQGKATITADTSSNTVYLQLSSLTSEDTAVYYCLNAMEYWGQGTSVTVSS
VL: QSVLTQSPAIMSASPGEKVTMTCSANSSVSDMYWYQQRPGSSPRLLIYDTSNLASGVPVRFSGSGSGTSYSLTISRMEAEDAATYYCQQWSTYPWTFGGGTKLEIK
For the molecule B14, the Kd in experiment [1] came to 2.62 nM.

B15: KCD005 (antibody, V domains shown)
VH: EVQLQQSGPELVKPGASVKISCKASGYTFTDHYMNWVKQSHGKSLEWIGDINPNNGGTSCNQKFKGKATLTVDKSSSTAYMELRSLTSGDSAVYYCTREGASFAFWGQGTLVTVSA
VL: DVLMTQTPLSLPVSLGDQASISCRSSQSIVHSNGDTYLEWYLQKPGQSPKLLIYKVSNRFSGVPDRFSGSGSGTDFTLKISRVEAEDLGVYYCFQGSHVPVTFGAGTKLELK
Consider B15, for which the Kd in experiment [1] turned out to be 1.39 nM.

B16: KCD232 (antibody, V domains shown)
VH: EVQLVESGGGLVQPKGSLKLSCAASGFSFNTYAMNWVRQAPGKGLEWVARIRSKSNNYATYYADSVKDRFTISRDDSESMVYLQMNNLKTEDTAMYYCVRHGYYWYFDVWGTGTTVTVSS
VL: DVLMTQTPLSLPVSLGDQASISCRSSQSIVHSDGNTYLEWYLQKPGQSPKLLIYRVSNRFSGVPDRFSGSGSGTDFTLKISRMEAEDLGVYYCFQGSHVPYTFGGGTKLEIK
For B16, the Kd in experiment [2] was 5.5 nM.

B17: KCD009 (antibody, V domains shown)
VH: QIQLVQSGPELKKPGETVKISCKASGYIFRNYGMNWVKQGPGKGLKWMGWINTYTGEPTYADDFKGRFAFSLETSASTAYLQISNLKNEDTATYFCVRDGPGFAYWGQGTLVTVSA
VL: DVLMTQTPLSLPVSLGDQASISCRSSLIIEHSDGNTYLEWYLQKPGQSPKLLIYKVSNRFSGVPDRFSGSGSGTDFTLKISRVEADDLGVYYCFQGSHVPVTFGAGTNLELK
For B17, the Kd in experiment [1] is 5.57 nM.

B18: KCD124 (antibody, V domains shown)
VH: EVQLQQSGPELVKPGASVKISCKASGYTFTDHYMNWVKQSHGKSLEWIGDINPNNGGTSYNQKFKGKATLTVDKSSSTAYMELRSLTSGDSAVYYCTREGASFAFWGQGTLVTVSA
VL: DVLMTQTPLSLPVSLGDQASISCRSSQSIVHSNGDTYLEWYLQKPGQSPKLLIYKVSNRFSGVPDRFSGSGSGTDFTLKISRVEAEDLGVYYCFQGSHVPLTFGAGTKLELK
In experiment [1], B18 showed a Kd of 4.32 nM.

B19: KCD229 (antibody, V domains shown)
VH: EVQLVESGGGLVQPKGSLKLSCAASGFSFNTYAMNWVRQAPGKGLEWVARIRSKSNNYATYYADSVKDRFTIFRDDSESMLYLQMNNLKTEDTAMYYCVRHGYYWYFDVWGTGTTVTVSS
VL: DVLMTQNPLSLPVSLGDQASISCRSSQSIVHSNGNTYLEWYLQKPGQSPNLLIYNVFNRFSGVPDRFSGSGSGTDFTLKISRVEAEDLGVYYCFQGSHVPYTFGSGTKLEIK
Consider B19, for which the Kd in experiment [2] stood at 1.6 nM.

B20: KCD010 (antibody, V domains shown)
VH: EVLLQQSGPELVKPGASVKIPCKASGYTFTDYDMDWVKQSHGKSLEWIGHINPNNGGTIYNQKFKGKATLTVDKSSSTAYMELRSLTSEDTAVYYCGTGDFAYWGHGTLVTVSA
VL: QIVLTQSPAIMSVSPGEKVTLTCSASSSVSSSYLYWYQKKPGSSPKLWIYSTSNLASGVPARFSGSGSGTSYSLTISSMEAEDAASYFCHQWSSYPPTFGAGTKLELK
Regarding B20, the Kd in experiment [1] turned out to be 3.05 nM.

B21: KCD023 (antibody, V domains shown)
VH: EVLLQQSGPELVKPGASVKIPCKASGYTFTDYNIDWVKQSHGKSLEWIGDINPNNGGINYNQKFKGKATLTVDKSSSTAYMELRSLTSEDTAVYYCGTGDYAYWGQGTLVTVSA
VL: QIVLTQSPAFMSASPGEKVTLTCSASSSVSSSYLYWYQQKPGSSPKLWIYSTSNLASGVPGRFSGSGSGTSYSLTISSMEAEDAASYFCHQWTSYPPTFGAGTKLELK
In turn, B21 gave a Kd in experiment [1] of 5.29 nM.
